The target of the assay is T1, Biotinylated UvrD (E. coli, UniProt P03018 1-720, biotin).
T1 construct: UvrD helicase (DNA helicase II), E. coli; also called E. coli UvrD
T1 sequence (looked up): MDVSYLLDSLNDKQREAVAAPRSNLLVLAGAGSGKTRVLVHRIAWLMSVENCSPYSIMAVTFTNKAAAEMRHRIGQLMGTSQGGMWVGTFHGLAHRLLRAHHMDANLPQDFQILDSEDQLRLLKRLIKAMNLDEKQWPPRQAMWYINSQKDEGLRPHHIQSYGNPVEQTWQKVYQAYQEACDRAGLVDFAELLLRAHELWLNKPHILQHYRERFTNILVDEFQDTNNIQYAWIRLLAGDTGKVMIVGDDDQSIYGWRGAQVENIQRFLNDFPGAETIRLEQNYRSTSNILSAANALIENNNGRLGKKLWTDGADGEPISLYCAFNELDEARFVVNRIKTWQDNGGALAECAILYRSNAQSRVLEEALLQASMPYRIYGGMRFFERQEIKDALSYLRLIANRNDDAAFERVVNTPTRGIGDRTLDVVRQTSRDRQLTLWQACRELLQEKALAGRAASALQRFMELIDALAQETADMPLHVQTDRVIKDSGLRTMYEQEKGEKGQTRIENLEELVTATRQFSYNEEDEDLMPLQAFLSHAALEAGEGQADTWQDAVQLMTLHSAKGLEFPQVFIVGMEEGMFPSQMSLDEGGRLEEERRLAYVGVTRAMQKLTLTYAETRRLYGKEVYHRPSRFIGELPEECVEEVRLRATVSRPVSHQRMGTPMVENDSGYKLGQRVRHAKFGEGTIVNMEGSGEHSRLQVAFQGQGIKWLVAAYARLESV
The assay is described as follows: SPR; BIAcore T200, 25°C; biotinylated UvrD or Rep immobilised on streptavidin-coated SA chips; Tau or UvrB passed over, ca. 200-4000 nM, 20 µl/min; 10 mM HEPES pH 7.4, 3 mM EDTA, 150 mM NaCl, 10 mM MgCl2, 0.05% Tween 20; single sites binding model. To be noted: both partners purified.

B1: UvrB (natural protein, UniProt P0A8F8 1-673, looked up)
chain: MSKPFKLNSAFKPSGDQPEAIRRLEEGLEDGLAHQTLLGVTGSGKTFTIANVIADLQRPTMVLAPNKTLAAQLYGEMKEFFPENAVEYFVSYYDYYQPEAYVPSSDTFIEKDASVNEHIEQMRLSATKAMLERRDVVVVASVSAIYGLGDPDLYLKMMLHLTVGMIIDQRAILRRLAELQYARNDQAFQRGTFRVRGEVIDIFPAESDDIALRVELFDEEVERLSLFDPLTGQIVSTIPRFTIYPKTHYVTPRERIVQAMEEIKEELAARRKVLLENNKLLEEQRLTQRTQFDLEMMNELGYCSGIENYSRFLSGRGPGEPPPTLFDYLPADGLLVVDESHVTIPQIGGMYRGDRARKETLVEYGFRLPSALDNRPLKFEEFEALAPQTIYVSATPGNYELEKSGGDVVDQVVRPTGLLDPIIEVRPVATQVDDLLSEIRQRAAINERVLVTTLTKRMAEDLTEYLEEHGERVRYLHSDIDTVERMEIIRDLRLGEFDVLVGINLLREGLDMPEVSLVAILDADKEGFLRSERSLIQTIGRAARNVNGKAILYGDKITPSMAKAIGETERRREKQQKYNEEHGITPQGLNKKVVDILALGQNIAKTKAKGRGKSRPIVEPDNVPMDMSPKALQQKIHELEGLMMQHAQNLEFEEAAQIRDQLHQLRELFIAAS
The molecule B1 returned a Kd of 231 nM. That is a sub-micromolar value.
